Columns and labels:
primary human HSCs [1] = experiment: α-SMA Assay in TGF-β-stimulated hepatic stellate cells; assay type: cell-based; settings: 24 h, read-out: α-SMA Assay EC50
Description: For quantification of α-SMA protein expression, HSC's were plated at a density of 10,000 cells/well in collagen coated 96-well plates (BD-Biosystems). […] HSCs were fixed in 4% PFA, permeabilized in 0.02% Triton-X-100, blocked for 30 min. and stained with an anti-α-SMA specific antibody (Sigma) and a flourescently labeled secondary antibody (Invitrogen). α-SMA expression was quantified on a fluorescent plate reader.

HSCs = experiment: Quantitative RT-PCR of TGF-β1-induced gene transcription in HSCs; assay type: cell-based, human; settings: pre-treated HSCs, TGF-β1 5 ng/ml for 48 hrs
Description: For gene expression assays, RNA was isolated using commercially available kit (Qiagen Midikit), converted to cDNA (Retroscript Kit, Ambion) and tested for expression of genes involved in fibrosis with human probes on ABI 7300 (Applied Biosystems). All assays were performed in triplicate.
Quantitative RT-PCR was used to determine the effects of compounds to inhibit TGF-β1-induced gene transcription of αSMA, COL1α1, […], and lumican.

primary human HSCs [2] = experiment: Collagen Assay (Sircol) in TGF-β-stimulated hepatic stellate cells; settings: read-out: Collagen Assay EC50
Description: Collagen synthesis, α-SMA (smooth muscle actin) expression, and changes in transcript expression were measured in response to stimulation from ROS (reactive oxygen species) and TGF-β.
Commercially available primary human HSCs (Sciencell) were plated at a density of 250,000 cells/well on 12-well plates (Corning). HSCs were co-stimulated with 5 ng/mL TGF-β+/− ASK1 inhibitor compounds. Collagen production was assessed by Sircol Assay where extracellular collagen was digested with pepsin, followed by acid extraction, neutralization, and colometric quantification using the Sircol assay kit according to the manufacturer's protocols (BioColor).

male C57BL/6 mice = experiment: Interventional NASH model (treatment from day 240 of high fat, high cholesterol, high sugar diet); assay type: in vivo
Description: Liver homogenate (1.5 mL) was transferred to 1.5 mL Eppindorf tubes and centrifuged at 14,000 rpm for 10 min. Supernate was transferred to 96-deep well plate and diluted 1:1 with 4 M HCl. HYP levels were quantified using a commercially available hydroxyproline assay (Quickzyme Biosciences).
Commercially available high fat, high cholesterol, high sugar diet was administered continuously to 12 week old male C57BL/6 mice for 320 days. […] Animal cohorts (n=15) were sacrificed after 80 days of treatment. Collagen synthesis and hydroxyproline (HYP) were measured using D2O labeling. Second harmonic imaging was used to quantitate collagen morphometry.
Commercially available high fat, high cholesterol, high sugar diet was administered continuously to 12 week old male C57BL/6 mice for 320 days. […] At 80 days of treatment, collagen synthesis and HYP levels in each group (n=15) were determined using D2O labeling. […] Liver homogenate (1.5 mL) was centrifuged at 14,000×rpm for 10 min and the resulting supernate was d diluted 1:1 with 4 M HCl. HYP levels were quantified using a commercially available hydroxyproline assay (Quickzyme Biosciences).
In addition, immunohistochemistry and immunoblot analysis were used to characterize the levels of phospho-p38 (p-p38), phospho-JNK1 (p-JNK1), and phospho-MKK4 (p-MKK4) proteins.

Mdr2^−/− BALB/c = experiment: Interventional PSC model; assay type: in vivo, mice
Description: Control groups received treatment with either vehicle or an unrelated isotype-matched control IgG (i.e. a murine IgG1). Portal venous pressure
(PVP) was measured invasively by direct cannulation of the portal vein with a micro-tip pressure monitor at the end of the study. Liver fibrosis was evaluated by histology, biochemical determination of collagen and analysis of profibrogenic gene expression by qRT-PCR.

[3] = tested on: TAA-induced liver fibrosis; experiment: TAA-induced liver fibrosis; settings: in vivo

Cc1cc(F)c(C(=O)Nc2cccc(-c3nncn3C(C)C)n2)cc1-n1cnc(C2CC2)c1 [Compound 3]
EC50 (primary human HSCs [1]): 18.9 nM
TGF-β1-induced responses in RNA levels of αSMA, COL1α1, TIMP1, and lumican (HSCs): blocked or inhibited
EC50 (primary human HSCs [2]): 11.6 nM

B1: AB0023: murine anti-LOXL2 antibody, heavy chain variable region SEQ ID NO: 15, light chain variable region SEQ ID NO: 16 (antibody, V domains shown)
VH: MEWSRVFIFLLSVTAGVHSQVQLQQSGAELVRPGTSVKVSCKASGYAFTYYLIEWVKQRPGQGLEWIGVINPGSGGTNYNEKFKGKATLTADKSSSTAYMQLSSLTSDDSAVYFCARNWMNFDYWGQGTTLTVSS
VL: MRCLAEFLGLLVLWIPGAIGDIVMTQAAPSVSVTPGESVSISCRSSKSLLHSNGNTYLYWFLQRPGQSPQFLIYRMSNLASGVPDRFSGSGSGTAFTLRISRVEAEDVGVYYCMQHLEYPYTFGGGTKLEIK
modifications: anti-LOXL2 antibody AB0023 heavy chain variable region; anti-LOXL2 antibody AB0023 light chain variable region
synthesis rates of extracellular matrix proteins (Col1a1, Col1a3, and Col1a5) (male C57BL/6 mice; Example 3): affected
blood glucose and insulin levels (male C57BL/6 mice; additional studies): did not affect
relative hydroxyproline levels (male C57BL/6 mice; additional studies, FIG. 30): did not result in a decrease
reduction of hepatic collagen deposition (hydroxyproline levels) (Mdr2^−/− BALB/c; 6 weeks treatment, vs control group): 38%
portal venous pressure (PVP) (Mdr2^−/− BALB/c; end of study, control 10.1±0.2): 8.36±0.23 mmHg
fibrosis progression in Mdr2^−/− mice (Mdr2^−/− BALB/c; mouse, in vivo): blocked
TAA-induced fibrosis progression [3]: blocked

Source: patent US20150342943A1, “METHODS OF TREATING LIVER DISEASE” (Gilead Sciences, Inc., priority 2014, published 2015)
